Reference: the supplement of paper PMC12042874
± gives the uncertainty stated by the source.

Experiment: amyloid nucleation score (Sup35N fusion, yeast selection) (log enrichment); library NNK1; higher = more nucleation; inactive = no reads after selection
Procedure, shortened: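 Nucleation score: DiMSum log enrichment of output over input reads, centred on the mode score of non-aggregating sequences. Only sequences with at least 100 input reads were kept. Reads came from Illumina sequencing of plasmid inserts before and after 7 days of growth at 30°C without adenine and uracil, in psi-negative yeast expressing Sup35N fused to peptides of 20 random codons after 24 hours of induction with 100 μM copper sulfate.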

Substance	amyloid nucleation score
KFNITFVSVKSYKVPLSLDI	4.81 ± 0.066
VEAESFARCDRHVHRQTIGG	0.369 ± 0.54
KRLTMVVRGKLSVLHP	3.74 ± 0.12
IVVFQGVCTKMLRTDELIWR	1.18 ± 0.2
QLTGW	-0.036 ± 0.22
TFISSMPNQMIFPKGGSRGC	inactive
SLDVICPGVYLEMLGRESIL	-0.416 ± 0.84
HGLKWGFQLTNLSMLVTSCM	-0.475 ± 1.1
FSHLKYNSVHFIPLRDFDSL	0.938 ± 0.41
VYKRFSTTMCLMTSSEWVDS	2.45 ± 0.068
YASVIVTQHRTMICRQTLCR	1.46 ± 0.51
HTYDGHSVSGCTGHVMFLSS	-0.021 ± 0.41
RRICSNCLFSGGIWNISGWV	0.509 ± 1.1
LQKVFLAVDSYW	-0.347 ± 0.92
IFPPFMDFRNCPVMLNC	0.761 ± 0.2
AAVCRSILVF	0.674 ± 0.88
RRGEPIKKIPACGGSLCVR	-0.368 ± 0.47
HHGRFRCKAVCRRKCGLVQV	inactive
CVLSNRNFNYVAYTYKLQYP	1.19 ± 0.32
VHSCYLVLARQWNVIKISHI	0.039 ± 0.43
NSSHLLVMCDICYNFKVRTL	-1.69 ± 1.5
KYLVLHILHIWMCHRYVWGM	-0.973 ± 0.6

Substance	amyloid nucleation score
FIASIG	0.274 ± 0.79
RSVGFEGMSNGWCATES	0.634 ± 0.77
TGCRHFLQVCSVHRRRGSVC	0.022 ± 0.78
IGESDNG	-0.63 ± 0.56
FGINVSIFTESLWLNYC	4.52 ± 0.052
SHIRSWVRSAHAWYIWHGKT	0.466 ± 0.44
VGNEWSVLRLGGGVGSIFL	-1.07 ± 1.3
PRGLVWNVPRLSKTVASILF	-0.942 ± 0.73
LVCFHQRVKIVRYCRTGTLT	-0.095 ± 0.61
NTNYGLIQFGILLCRFC	6.814 ± 0.052
LIRTLANWLSIPHVLI	-0.351 ± 0.3
SFGTQPGQISVN	-0.856 ± 2.4
VNAIYDSWLSL	inactive
HCCFTGRKGYSRFAVLSCST	1.11 ± 0.48
ERPAAYATVTTSCKKTWDL	7.769 ± 0.06
YILDGESAYFVLLYEKVYFS	-0.403 ± 0.53
TLSTRTIHSCSEYYSGMCVL	0.089 ± 0.93
DLLQLYSDGTRGYVFFLLMK	inactive
DKSNRTCNWQFNNICCL	8.386 ± 0.049
VLKCFSLEVVTWDSACLAGL	0.252 ± 1.1
CYWSFKSAVAGPLSSESEGS	4.4 ± 0.095
KGANADAYGRGYNAVFMLEW	-1.39 ± 1.2

Substance	amyloid nucleation score
YYSHIIQAGCWVVYRDVRLF	0.52 ± 0.88
KGDMWMGPNESWVKVNLYRV	0.039 ± 0.55
PIIILFL	1.15 ± 0.54
LNIEVFNFICNRRAIWMRFA	0.684 ± 0.53
VSSVGVDMMYLTTRGGCHSI	inactive
WFYICVVSFDLGIKRRYRHR	inactive
CSLLLMYIKNELMIRSFGRF	inactive
RILAIIVGVSAVSKKSNNEL	0.913 ± 0.48
VAKVLKSSCGRYG	-0.573 ± 0.44
EGGSF	0.059 ± 0.45
IDWKLKLMFMCFESKSLVNW	-0.655 ± 0.32
WGIPMVGSRGPMCTKVGFRK	0.141 ± 0.35
SSSKYMIFFYRAIHHHKGME	0.31 ± 0.33
PVQLRFRSSNIWTLMNQVFI	0.612 ± 0.95
FVEMVYFNECCIPKFDIEYV	1.6 ± 0.17
VSRWHQCADPPRCGHRCIWA	0.299 ± 0.51
GRVCKHIFK	0.375 ± 1.2
SEFHFMRT	-0.482 ± 1.7
IFLPYI	-0.383 ± 1.4
FLWSIICSYSQLY	-0.201 ± 0.35
SNLVCII	0.211 ± 0.59
LKHRRSWYLTYIDCAGM	-0.294 ± 0.43

Substance	amyloid nucleation score
RLVCKFRMRKSNRGVRNMLC	0.797 ± 0.53
RRTLEAFICL	-0.312 ± 0.84
NGPLHSYYTVWGCMYCLLML	3.06 ± 0.23
VFKGQMVVPPIYVYLVSWMG	-1.06 ± 1.7
AVFLVRAPSTRGLARMVDLA	inactive
SVWGIILYYWKY	0.388 ± 0.43
HYTLIGIY	inactive
WKNLGQV	-0.327 ± 0.39
LFNILASFSYFAFYYLLLLS	-0.492 ± 0.8
GILYQV	-0.403 ± 0.29
YHGGYGSSHMWRFVRCIKAY	0.168 ± 0.27
SLRVTLTGQTDLASEFQWWL	inactive
PLLEATNCDLHGLVRLLMRF	0.651 ± 0.72
LFLLSTSESCFQCATPANDN	-0.222 ± 0.59
FFVGEDRACSRYSLTTTITG	0.554 ± 0.64
TVVIDSFLCRLQNGVDLGS	inactive
HYRCVRGYSFFVLLCDSRIQ	-0.497 ± 0.93
SIYCGDTQDVVPIVSHLSNL	0.187 ± 0.29
NRNKVR	-0.2 ± 1.1
KLWVNNQS	0.198 ± 0.57
